Reference: the supplement of paper PMC11908140

B1: library; numbered along this chain (parent)
chain: MRKPRAAVGSGHRKQAASQEGRQKHAKNNSQAKPSACDGLARQPEEVVLQASVSSYHLFRDVAEVTAFRGSLLSWYDQEKRDLPWRRRAEDEMDLDRRAYAVWVSEVMLQQTQVATVINYYTGWMQKWPTLQDLASASLEEVNQLWAGLGYYSRGRRLQEGARKVVEELGGHMPRTAETLQQLLPGVGRYTAGAIASIAFGQATGVVDGNVARVLCRVRAIGADPSSTLVSQQLWGLAQQLVDPARPGDFNQAAMELGATVCTPQRPLCSQCPVESLCRARQRVEQEQLLASGSLSGSPDVEECAPNTGQCHLCLPPSEPWDQTLGVVNFPRKASRKPPREESSATCVLEQPGALGAQILLVQRPNSGLLAGLWEFPSVTWEPSEQLQRKALLQELQRWAGPLPATHLRHLGEVVHTFSHIKLTYQVYGLALEGQTPVTTVPPGARWLTQEEFHTAAVSTAMKKVFRVYQGQQPGTCMGSKRSQVSSPCSRKKPRMGQQVLDNFFRSHISTDAHSLNSAAQ

Variants of: B1
Assay: 8OG:A repair function score (normalized; synonymous = 0, nonsense = -1) (normalized log-likelihood score); higher = more repair activity (WT-like)
Details: with 8OG:A DNA repair reporter (GFP) in HEK-293 MUTYH KO cells
How it was run: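 Lentiviral MUTYH cDNA NNN codon-scan libraries in HEK-293 MUTYH knockout cells (10 pg/ml doxycycline) were co-transfected with an 8OG:A GFP repair reporter plus mCherry. At 72 h, viable mCherry+ cells were sorted into GFP+ (repair) and GFP− bins, three replicates per tile, then tile amplicons were sequenced. Per-tile Rosace fitness scores became a normalized repair function score anchored on synonymous and nonsense distributions. Synonymous medians were set to 0 and nonsense to -1; variants under 300 counts per million at the start were removed.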

8OG:A repair function score of substitutions, site by site:
T308: I -0.0904, G -0.0427, E -0.0446, Y -0.0509, A 0.0246, N 0.0456, Q 0.0017, M -0.0648, L -0.0193, D -0.0467, C -0.00889, F -0.0849, P -0.0519, V -0.00366, W 0.00192, R 0.0174, H -0.0553, K -0.0882, S -0.000367
H312: G -0.0894, D -0.0268, A -0.0906, C -0.0404, Y -0.0454, V 0.078, N -0.0171, K 0.0995, M -0.0518, S -0.0172, L 0.0443, I 0.0886, P -0.0124, F -0.000263, W -0.103, T -0.112, R -0.0802, Q -0.0663, E 0.0205
P317: D -0.029, F -0.125, S 0.0611, N 0.0467, E -0.0108, K -0.197, A -0.0112, L -0.0676, R 0.0296, M 0.112, H -0.0747, I -0.0482, G -0.0274, Q -0.121, C -0.0347
A305: W -0.0242, G -0.0138, M -0.0121, Y 0.000265, P -0.125, K -0.0297, V -0.0191, F -0.0551, D -0.0865, E -0.0473, C -0.0298, S -0.019, I 0.00729, T -0.034, R -0.0332, Q -0.0168, L -0.00389, H -0.0126, N 0.00434
G309: L -0.0772, N -0.0326, C -0.165, Q -0.105, H 0.0104, K -0.0254, E 0.02, V -0.0173, R -0.0133, I -0.145, P -0.0923, A -0.0354, S -0.0582, D -0.000739, Y -0.0852, W -0.149, T -0.00848, M -0.0498, F 0.0213
V301: I -0.0154, H -0.166, F -0.175, T -0.284, W -0.211, Y -0.219, D -0.39, E -0.439, Q -0.242, S -0.344, N -0.386, R -0.275, K -0.283, M -0.126, L -0.0363, A -0.249, P -0.31, C -0.217, G -0.279
L315: T -0.0895, G -0.123, S -0.102, P -0.0779, A -0.104, F -0.147, D -0.206, K -0.116, Q -0.193, C -0.0705, V -0.0921, N -0.209, M 0.0419, E -0.305, I -0.0865, H -0.308, R -0.0162, W -0.187, Y 0.0406
L313: Y -0.104, M 0.00327, H -0.299, S -0.292, R -0.425, A -0.4, K -0.581, F -0.0503, P -0.504, T -0.317, V -0.213, C -0.146, N -0.337, I -0.156, Q -0.328, G -0.386, E -0.601, D -0.363, W -0.257
D300: K -0.325, E -0.0547, V -0.0916, R -0.291, Y -0.121, N -0.0764, G -0.148, T -0.109, I -0.191, Q -0.112, S -0.139, C -0.0631, P -0.0407, F -0.255, L -0.189, H -0.0192, M -0.0873, W -0.16
C304: L -0.16
